Reference: the supplement of paper PMC7877785
± gives the uncertainty stated by the source.

Assay: self-splicing fitness, log relative to wild type (ln ratio); higher = more splicing; Tetrahymena group I intron in knt gene, E. coli kanamycin selection, DiMSum; sequences stand for … in CUCUCU…GGAGGGAAAAGUUAUCAGGCAUGCACCUGGUAGCUAGUCUUUAAACCAAUAGAUUGCAUCGGUUUAAAAGGCAAGACCGUCAAAUUGCGGGAAAGGGGUCAACAGCCGUUCAGUACCAAGUCUCAGGGGAAACUUUGAGAUGGCCUUGCAAAGGGUAUGGUAAUAAGCUGACGGACAUGGUCCUAACCACGCAGCCAAGUCCUAAGUCAACAGAUCUUCUGUUGAUAUGGAUGCAGUUCACAGACUAAAUGUCGGUCGGGGAAGAUGUAUUCUUCUCAUAAGAUAUAGUCGGACCUCUCCUUAAUGGGAGCUAGCGGAUGAAGUGAUGCAACACUGGAGCCGCUGGGAACUAAUUUGUAUGCGAAAGUAUAUUGAUUAGUUUUGGAGUACUCGUGGUCG
In short: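 Pooled colonies went to amplicon sequencing on an Illumina HiSeq 2500 after six replicate transformations. The plates were LB agar with 100 μg/mL carbenicillin, 50 μM IPTG and 0.2% rhamnose, with or without 25 μg/mL kanamycin, incubated overnight at 37°C or 30°C. The E. coli BL21(DE3) library had all eight P1ex-region intron nucleotides randomised, the intron placed in the knt kanamycin-resistance gene on pET-22b(+). DiMSum fitness is the error-weighted combination of replicate fold changes, kanamycin against none, normalised to wild type.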

| Sequence | self-splicing fitness (ln) (30 °C) | self-splicing fitness (ln) (37 °C) |
| --- | --- | --- |
| CGCAAGCAAUAUUACGGGCU | -1.68 ± 0.12 | -0.144 ± 0.16 |
| CGCAAGCAAUAUUACGGGUA | -1.68 ± 0.086 | -0.81 ± 0.09 |
| CGCAAGCAAUAUUACGGUUG | -2.25 ± 0.098 | -1.18 ± 0.096 |
| CGCAAGCAAUAUUACGUAGG | -1.24 ± 0.057 | -0.509 ± 0.075 |
| CGCAAGCAAUAUUACGUCCC | -2.84 ± 0.34 | -0.615 ± 0.26 |
| CGCCAGCAAUAUUACGAAAA | -3.4 ± 0.29 | -2.7 ± 0.2 |
| CGCCAGCAAUAUUACGACAG | -0.00427 ± 0.052 | 0.18 ± 0.067 |
| CGCCAGCAAUAUUACGACUC | -3.02 ± 0.22 | -2.21 ± 0.25 |
| CGCCAGCAAUAUUACGACUG | -0.729 ± 0.13 | 0.335 ± 0.15 |
| CGCCAGCAAUAUUACGAGGU | -4.39 ± 0.28 | -1.89 ± 0.18 |
| CGCCAGCAAUAUUACGAUCG | -0.715 ± 0.063 | -0.476 ± 0.092 |
| CGCCAGCAAUAUUACGCAGU | -4.04 ± 0.18 | -2.18 ± 0.16 |
| CGCCAGCAAUAUUACGCCCG | -1.47 ± 0.14 | -0.959 ± 0.19 |
| CGCCAGCAAUAUUACGCCUG | -1.21 ± 0.1 | -0.608 ± 0.096 |
| CGCCAGCAAUAUUACGCGCC | -1.82 ± 0.27 | -1.15 ± 0.27 |
| CGCCAGCAAUAUUACGCGGG | -4.25 ± 0.2 | -3.11 ± 0.24 |
| CGCCAGCAAUAUUACGGACU | -0.845 ± 0.066 | 0.157 ± 0.091 |
| CGCCAGCAAUAUUACGGGCA | -0.258 ± 0.095 | 0.189 ± 0.095 |
| CGCCAGCAAUAUUACGGGGG | -3 ± 0.16 | -2.17 ± 0.2 |
| CGCCAGCAAUAUUACGGUAC | -2.83 ± 0.095 | -1.52 ± 0.091 |
| CGCCAGCAAUAUUACGUAGC | -2.36 ± 0.17 | -3.11 ± 0.33 |
| CGCCAGCAAUAUUACGUAUG | -0.516 ± 0.055 | -0.0225 ± 0.074 |
| CGCCAGCAAUAUUACGUUGA | -2.84 ± 0.11 | -2.83 ± 0.13 |
| CGCCAGCAAUAUUACGUUGU | -3.62 ± 0.14 | -3.07 ± 0.15 |

| Sequence | self-splicing fitness (ln) (30 °C) | self-splicing fitness (ln) (37 °C) |
| --- | --- | --- |
| CGCGAGCAAUAUUACGAAUG | -1.9 ± 0.095 | -0.424 ± 0.13 |
| CGCGAGCAAUAUUACGAGCC | -3.49 ± 0.32 | -1.4 ± 0.28 |
| CGCGAGCAAUAUUACGAGGU | -2.22 ± 0.25 | -1.93 ± 0.23 |
| CGCGAGCAAUAUUACGAGUC | -2.7 ± 0.38 | -1.57 ± 0.29 |
| CGCGAGCAAUAUUACGAUGA | -3.39 ± 0.32 | -1.7 ± 0.18 |
| CGCGAGCAAUAUUACGAUUU | -3.35 ± 0.21 | -3.39 ± 0.24 |
| CGCGAGCAAUAUUACGCCGU | -3.93 ± 0.47 | -3.01 ± 0.4 |
| CGCGAGCAAUAUUACGCGAG | -3.97 ± 0.37 | -2.01 ± 0.41 |
| CGCGAGCAAUAUUACGCGUG | -2.29 ± 0.14 | -2.67 ± 0.15 |
| CGCGAGCAAUAUUACGCGUU | -3.07 ± 0.25 | -2.74 ± 0.34 |
| CGCGAGCAAUAUUACGCUGA | -2.03 ± 0.22 | -1.78 ± 0.35 |
| CGCGAGCAAUAUUACGGAUA | -1.66 ± 0.27 | – |
| CGCGAGCAAUAUUACGGCAU | -2.86 ± 0.17 | -1.43 ± 0.12 |
| CGCGAGCAAUAUUACGGCUA | -1.23 ± 0.15 | -1.98 ± 0.16 |
| CGCGAGCAAUAUUACGGGAU | -4.13 ± 0.23 | -2.59 ± 0.21 |
| CGCGAGCAAUAUUACGUCUG | -0.412 ± 0.067 | -0.178 ± 0.073 |
| CGCGAGCAAUAUUACGUGGA | -2.79 ± 0.16 | -3.01 ± 0.34 |
| CGCGAGCAAUAUUACGUGUU | -3.1 ± 0.15 | -2.75 ± 0.17 |
| CGCGAGCAAUAUUACGUUGG | -3.22 ± 0.17 | -2 ± 0.2 |
| CGCGAGCAAUAUUACGUUUC | -4.02 ± 0.27 | -2.06 ± 0.25 |
| CGCGAGCAAUAUUACGUUUU | -4.56 ± 0.46 | -2.17 ± 0.2 |
| CGCUAGCAAUAUUACGAACG | -2.16 ± 0.099 | -1.1 ± 0.11 |
| CGCUAGCAAUAUUACGAAUU | -2.77 ± 0.16 | -2.58 ± 0.28 |
